Like-named read-outs stand apart in the source and are kept apart here.

One data set deals with FtsZ. The conditions noted are these: for FtsZ autocorrelation T: mean; for Autocorrelation Decay Tau: Fig. S2i, + FtsN.
Data set [1] can be described thus: SEC-MALS oligomeric state of FtsA in solution. The data set is classed as physicochemical. As to the method: Light scattering was recorded on a miniDAWN light scattering device (Wyatt). Changes in the refractive index were used to define the peak area, which was used to obtain the molecular mass. The analysis of the data was performed with the ASTRA software (Wyatt).
On the technique in general: Size exclusion chromatography separates by hydrodynamic size, large species first.
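For Autocorrelation Decay Tau in this document: FtsZ filament patterns imaged by time-lapse TIRF microscopy, one frame per 2 s, with ATP and GTP, Pearson correlation of first frame versus later frames, monoexponential fit, slower decay means persistent structures.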
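For FtsZ autocorrelation T in this document: FtsZ filament patterns imaged by time-lapse TIRF microscopy, one frame per 2 s, with ATP and GTP, Pearson correlation of first frame versus later frames, monoexponential fit, slower decay means persistent structures.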
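For FtsZ autocorrelation in this document: FtsZ filament patterns imaged by time-lapse TIRF microscopy, one frame per 2 s, with ATP and GTP, Pearson correlation of first frame versus later frames, monoexponential fit, slower decay means persistent structures.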

Protocol for FtsZ: Additionally, the reaction chamber contained 4 mM ATP and 4 mM GTP, as well as a scavenging system to minimize photobleaching effects: 30 mM d-glucose, 0.050 mg ml^−1 Glucose Oxidase, 0.016 mg ml^−1 Catalase, 1 mM DTT and 1 mM Trolox. Prior addition of all components a corresponding buffer volume was removed from the chamber to obtain a total reaction volume of 100 µl. The dynamic protein pattern was monitored by time-lapse TIRF microscopy at one frame per 2 s and 50 ms exposure time.
To measure reorganization dynamics of FtsZ filaments, we used a temporal correlation analysis based on the Image CorrelationJ 1o plugin. We quantified the PCC between the first frame to subsequent frames with increasing time lag (∆t). The decrease in the PCC was plotted against ∆t to obtain autocorrelation curves. Slower decay indicates more persistent structures. The rates of decay were extracted by fitting monoexponential decay to the autocorrelation curves y=a⋅e^−b⋅t+k , where a is the starting point, b is the decay rate and k is the final offset. The half time of the monoexponential decay was calculated via the decay rate.

For the molecule “FtsA WT: wild-type E. coli actin-homologue FtsA, membrane anchor of FtsZ”, the FtsZ autocorrelation is 103.16 s in the data set with FtsZ (0.1 µM FtsA, Exp. 1); 95.06 s in the data set with FtsZ (0.1µM FtsA, Exp. 2); 137.57 s in the data set with FtsZ (0.2 µM FtsA, Exp. 1); 43.74 s in the data set with FtsZ (0.2µM FtsA, Exp. 2); 70.56 s with FtsZ (0.4 µM FtsA, Exp. 1); 64.54 s with FtsZ (0.4µM FtsA, Exp. 2). The FtsZ autocorrelation is 56.36 s in the data set on FtsZ (0.8 µM FtsA, Exp. 1) and 98.59 s in the data set with FtsZ (0.8µM FtsA, Exp. 2). Besides, the “FtsZ autocorrelation T” value in the data set with FtsZ (0.10 µM FtsA) came to 86.22 s; in the data set with FtsZ (0.20 µM FtsA), 87.69 s; with FtsZ (0.40 µM FtsA) it was 64.93 s. For the same molecule, the “Autocorrelation Decay Tau” value is given as 3.11 min with FtsZ (replicate 1), 2.08 min in the data set with FtsZ (replicate 2) and 2.02 min in the data set on FtsZ (replicate 3). The “oligomeric state in solution” value in data set [1] is given as “monomeric in solution”.

B1: FtsA R286W (protein)
chain: MIKATDRKLVVGLEIGTAKVAALVGEVLPDGMVNIIGVGSCPSRGMDKGGVNDLESVVKCVQRAIDQAELMADCQISSVYLALSGKHISCQNEIGMVPISEEEVTQEDVENVVHTAKSVRVRDEHRVLHVIPQEYAIDYQEGIKNPVGLSGVRMQAKVHLITCHNDMAKNIVKAVERCGLKVDQLIFAGLASSYSVLTEDERELGVCVVDIGGGTMDIAVYTGGALRHTKVIPYAGNVVTSDIAYAFGTPPSDAEAIKVRHGCALGSIVGKDESVEVPSVGGRPPWSLQRQTLAEVIEPRYTELLNLVNEEILQLQEKLRQQGVKHHLAAGIVLTGGAAQIEGLAACAQRVFHTQVRIGAPLNITGLTDYAQEPYYSTAVGLLHYGKESHLNGEAEVEKRVTASVGSWIKRLNSWLRKEF
modifications: Cy3 or Cy5 at the N-terminus in the labelled form (labelled CLEPTGG peptide conjugated to the 5xGly tag by sortagging); unlabelled protein also used; left off: TwinStrep-SUMO, N-terminal, cleaved | 5x
As for B1, the FtsZ autocorrelation in the data set with FtsZ (0.1 µM FtsA, Exp. 1) stood at 160.44 s; in the data set on FtsZ (0.1µM FtsA, Exp. 2), 218.46 s; in the data set on FtsZ (0.2 µM FtsA, Exp. 1) it was 153.77 s; in the data set on FtsZ (0.2µM FtsA, Exp. 2) it was 78.66 s; in the data set with FtsZ (0.4 µM FtsA, Exp. 1), 331.53 s; in the data set with FtsZ (0.4µM FtsA, Exp. 2) it was 146.15 s. In addition, the FtsZ autocorrelation in the data set on FtsZ (0.8 µM FtsA, Exp. 1) was found to be 113.86 s; with FtsZ (0.8µM FtsA, Exp. 2) it was 144.33 s. The figures for the “FtsZ autocorrelation T” value with FtsZ (0.10 µM FtsA), in the data set on FtsZ (0.20 µM FtsA) and in the data set with FtsZ (0.40 µM FtsA) were 194.36 s, 136.59 s and 186.04 s, respectively. The entries for the “Autocorrelation Decay Tau” value with FtsZ (replicate 1), in the data set with FtsZ (replicate 2) and with FtsZ (replicate 3) were 4.55 min, 8.41 min and 7.40 min, respectively. The “oligomeric state in solution” value in data set [1] was “monomeric in solution”.
